In series [1] the target is Histone H3K4me3 (Homo sapiens) (UniProt P68431). Nature of the series: ITC. As to conditions: cited from earlier work.
The target of series [2] is T1, His-Spindlin1(49–262) (human, UniProt Q9Y657 49-262).
T1 construct: Spindlin1, human, amino acids 49-262; Modified pET15b with a minimal, non-cleavable hexahistidine tag; also called recombinant Spindlin1; source: E. coli BL21(DE3) codon plus, purified (Talon beads, gel filtration on superdex S75)
Nature of the series: AlphaScreen or HTRF; AlphaLISA displacement assay: 15 nM His-Spindlin1(49–262), 30 nM biotin-H3(1–23)K4me3, dilution series of unlabeled competitor; incubation 15, 30, 60 and 90 min (IC50 values in that order); 25 mM Hepes pH 7.5, 100 mM NaCl, 1 mg/ml BSA, 0.05% CHAPS; 25°C. As to conditions: both partners purified.

Series [3] addresses T2, Spindlin1, expressed by HL-60 suspension cells (human (endogenous in HL-60), UniProt Q9Y657 1-262).
T2 construct: Spindlin1, endogenous in HL-60 cells, detected by Western blot with an anti-Spindlin1 antibody; also called Spindlin1 (CETSA); source: endogenous, HL-60 cell lysate
Nature of the series: cellular thermal shift assay (CETSA) on cell lysate; HL-60 cell lysate treated with 500 μM H3(1–12)K4me3 or, as control, H3(1–21)K4me0 at 37°C for 60 min; heated 3 min at a temperature gradient; soluble Spindlin1 by Western blot; apparent Tagg. To be noted: one partner purified. For orientation: In western blotting, separated proteins are transferred to a membrane and probed.

Series [4] concerns the target T1, His-Spindlin1(49–262). Nature of the series: fluorescent thermal shift assay (FTSA); 0.1 mg/ml His-Spindlin1(49–262), 5x SYPRO Orange, dilution series of H3(1–12)K4me3; 100 mM Hepes pH 7.5, 150 mM NaCl; KD by regression of Tm against ligand concentration. To be noted: both partners purified.
Series [5] has as its target T3, His-JMJD2C(874–988) (murine, UniProt Q8VCD7 874-988).
T3 construct: JMJD2C (lysine demethylase), murine, amino acids 874-988, double Tudor domain; Modified pET15b with a minimal, non-cleavable hexahistidine tag; also called JMJD2C-Td; JMJD2C-TD; source: E. coli BL21(DE3) codon plus, purified (Talon resin, gel filtration)
T3 sequence (looked up): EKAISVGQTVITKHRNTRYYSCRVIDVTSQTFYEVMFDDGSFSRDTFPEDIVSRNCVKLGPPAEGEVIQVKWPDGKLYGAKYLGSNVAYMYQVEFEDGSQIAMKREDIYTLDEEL
Nature of the series: AlphaScreen or HTRF; AlphaLISA displacement assay with His-JMJD2C(874–988) and biotin-H3(1–23)K4me3 (methods: 300 nM and 25 nM; legend: 5 μM and 200 nM), dilution series of unlabeled H3(1–12)K4me3; beads 0.02 mg/ml. As to conditions: both partners purified.

Series [6] deals with T3, His-JMJD2C(874–988). Nature of the series: fluorescence polarisation; FP displacement assay: 10 μM His-JMJD2C(874–988), 15 nM FL-H3K4me3, dilution series of unlabeled H3(1–12)K4me3. As to conditions: both partners purified. (In general: In fluorescence polarisation assays a small probe gives low polarisation when free and higher when bound to something large.)
Series [7] addresses T1, His-Spindlin1(49–262). As to the kind of experiment: fluorescence polarisation; FP displacement assay: 100 nM His-Spindlin1(49–262), 10 nM FL-H3K4me3, dilution series of unlabeled competitor; incubation 15, 30, 60 and 90 min (IC50 values in that order); 25°C. To be noted: both partners purified.
Series [8] concerns the target T3, His-JMJD2C(874–988). Nature of the series: fluorescent thermal shift assay (FTSA); 0.4 mg/ml His-JMJD2C(874–988), 5x SYPRO Orange, dilution series of H3(1–12)K4me3; KD by regression of Tm against ligand concentration. To be noted: both partners purified.
In series [9] the target is T1, His-Spindlin1(49–262). As to the kind of experiment: fluorescence polarisation; His-Spindlin1(49–262) 0.06 to 750 nM titrated against 10 nM FL-H3K4me3; 60 min at 25°C; corrected for unspecific binding with 10 μM unlabeled H3(1–12)K4me3; one-site binding fit; 25 mM Hepes pH 7.5, 100 mM NaCl, 1 mg/ml BSA, 0.05% CHAPS. As to conditions: both partners purified.
Series [10] concerns the target T3, His-JMJD2C(874–988). As to the kind of experiment: fluorescence polarisation; KD determination of the binding of FL-H3K4me3 to JMJD2C-Td; same optimization route as for Spindlin1. As to conditions: both partners purified.

“And” between values parts separate entries of the source, which are not always exact repeats. Identical values can stand only once. Ends that are not written are not given here. Me3 = trimethyl (trimethylated lysine)

T1 sequence (Q9Y657 49-262): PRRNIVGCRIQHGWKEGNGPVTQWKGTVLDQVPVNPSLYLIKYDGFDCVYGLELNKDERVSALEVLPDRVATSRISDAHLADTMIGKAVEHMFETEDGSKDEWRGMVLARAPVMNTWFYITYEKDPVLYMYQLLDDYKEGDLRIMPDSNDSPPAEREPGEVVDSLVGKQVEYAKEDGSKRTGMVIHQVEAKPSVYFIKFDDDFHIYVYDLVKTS
T2 sequence (Q9Y657 whole entry): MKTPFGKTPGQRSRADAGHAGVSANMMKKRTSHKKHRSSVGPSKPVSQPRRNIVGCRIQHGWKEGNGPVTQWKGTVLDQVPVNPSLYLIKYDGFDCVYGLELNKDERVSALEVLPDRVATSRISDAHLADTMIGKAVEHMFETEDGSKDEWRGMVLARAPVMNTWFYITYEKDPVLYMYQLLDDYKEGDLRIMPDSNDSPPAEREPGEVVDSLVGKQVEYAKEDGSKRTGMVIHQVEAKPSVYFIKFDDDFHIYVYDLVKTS

As to Spindlin1 (from UniProt Q9Y657), the Kd in series [1] is 0.25 µM.

B1: H3(1–12)K4me3 (peptide)
peptide: ARTK(Me3)QTARKSTG
notes: histone H3, amino acids 1-12; Free N-terminus (H2N-) and free C-terminus (-COOH) as printed; also called unlabeled H3K4me3 peptide; unlabeled H3(1–12)K4me3; source: synthetic peptide, custom synthesized by Peptide Specialty Laboratories GmbH
As for B1, the IC50 with His-Spindlin1(49–262) [2] was 118 nM (3×) and 116 nM; in the series with His-JMJD2C(874–988) [5], 4.5 ± 0.2 µM; in the series with His-JMJD2C(874–988) [6] it was 19.1 ± 2.1 µM; with His-Spindlin1(49–262) [7], 0.18 µM and 0.232 µM and 0.202 µM and 0.201 µM. Besides, the “ΔTagg (against lysate treated with H3(1–21)K4me0)” value in series [3] came to 5.9 °C. Besides, the dissociation constant (Kd) in the series with His-Spindlin1(49–262) [4] was 0.38 µM; in the series with His-JMJD2C(874–988) [8], 12.5 µM and 13.3 µM.

B2: FL-H3K4me3 (peptide)
peptide: ARTKQTARKSTGGK
modifications: trimethylated lysine at position 4; mixed isomers of 5-(and-6)-carboxyfluorescein coupled to K14 side chain
notes: histone H3, N-terminal tail; also called fluorescent probe; fluorescein labeled peptide derived from histone H3; source: synthetic peptide, custom synthesized by Peptide Specialty Laboratories GmbH
As for B2, the values for the equilibrium dissociation constant (Kd) with His-Spindlin1(49–262) [9] and with His-JMJD2C(874–988) [10] were 0.031 µM and 14.5 ± 1.9 µM, respectively.

As usually defined, the Kd is the constant that tells how readily two partners part at equilibrium. By IC50 is commonly meant the point on the concentration scale where inhibition reaches its midpoint. A lower IC50 goes with greater potency in that assay.

Values taken from paper PMC4872087 (Nucleic Acids Research, 2016).
